Patent US20070207967A1, “Peptide Inhibitors of Matrix Metalloproteinase Activity” (CTT CANCER TARGETING TECHNOLOGIES OY, priority 2004, published 2007)

Legend:
pro-MMP-9 [1] = molecular target: T1, pro-MMP-9 (Homo sapiens, UniProt P14780); test: Phage binding to pro-MMP-9 with competitors; details: competitor peptides 20 μM, gelatin 2.5 μg/ml
Experimental: Phage display. Phage display selections were made using random peptide libraries CX7-10C and X9-10 (13). Purified human pro-MMP-9 (9) or recombinant MMP-9 C domain (2 μg/ml) was immobilized on microtiter wells and the wells were blocked with BSA. The phage were added in 50 mM Hepes (pH 7.5)/5 mM CaCl2/1 μM ZnCl2/150 mM NaCl/2% BSA. After three rounds of selection the phage sequences were determined (14). The phage binding specificity was tested with pro-MMPs or the recombinant domains (20 ng/well). The phage (10^8 transducing units/well) were allowed to bind in the absence or presence of competitor peptides (20 μM), gelatin (2.5 μg/ml) or TIMP-1 (2.5 μg/ml, Calbiochem) followed by washings with PBS/0.05% Tween20 (PBST). The phage were detected with a peroxidase-conjugated anti-phage antibody (Amersham Biosciences).

pro-MMP-9 [2] = molecular target: T1, pro-MMP-9; test: Plasmin/MMP-3-mediated pro-MMP-9 activation in HT1080 cells, zymography; format: cell-based; details: PDBu-activated HT1080, plasminogen, peptides 200 μM
Experimental: (§1) Activation of MMP-9. THP-1 cells (40 000/100 μl) or confluent HT1080 cells were incubated for 16 h in the presence or absence of 2.5 μg/ml plasminogen, 0.5 μg/ml pro-MMP-3 (Oncogene Research Products), 40 nM PDBu, and the peptides at a 200 μM concentration unless otherwise indicated. Aliquots of the conditioned media were analyzed by gelatin zymography (9). […] The samples were analyzed by gelatin zymography.

pro-MMP-2 = test: Pro-MMP-2 activation in HT1080 cells, zymography; format: cell-based, human; details: PDBu-activated HT1080, peptides 200 μM
Experimental: as §1

MMP-9 C domain [3] = molecular target: T2, MMP-9 C domain (Homo sapiens, UniProt P14780); test: β5 I-EGF2+3 binding assay, MMP-9 C domain
T2 construct: MMP-9 (Asp^494-Asp^688) were expressed as described (16); made in house; host or cells: E. coli (β5 fragment)
T2 sequence (P14780 513-707 limits assumed): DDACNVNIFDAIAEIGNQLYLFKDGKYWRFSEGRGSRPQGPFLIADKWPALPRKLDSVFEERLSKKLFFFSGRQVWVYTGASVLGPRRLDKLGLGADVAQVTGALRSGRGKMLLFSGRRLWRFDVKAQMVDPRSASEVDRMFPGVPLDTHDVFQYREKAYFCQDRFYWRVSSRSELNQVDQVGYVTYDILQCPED
Experimental: B5 I-EGF2+3 binding assay. MMP-9 C domain, MMP-2 C domain, CBD, β5 I-EGF2+3 or vitronectin (2 μg/ml) were immobilized in microtiter wells. Biotinylated β5 I-EGF2+3 fragment (2.5 μg/ml) was added to the wells which were preincubated with the competitors for 30 min in 1% BSA-PBST and then incubated further for one hour. Bound biotinylated protein was detected with streptavidin-peroxidase.

[4] = molecular target: T3, aminophenylmercuric acetate (APMA)-activated MMP-2 (Homo sapiens, UniProt P08253); test: Gelatinase inhibition assay (gelatin degradation), MMP-2; format: biochemical; details: biotinylated gelatin substrate
T3 sequence (P08253 110-660): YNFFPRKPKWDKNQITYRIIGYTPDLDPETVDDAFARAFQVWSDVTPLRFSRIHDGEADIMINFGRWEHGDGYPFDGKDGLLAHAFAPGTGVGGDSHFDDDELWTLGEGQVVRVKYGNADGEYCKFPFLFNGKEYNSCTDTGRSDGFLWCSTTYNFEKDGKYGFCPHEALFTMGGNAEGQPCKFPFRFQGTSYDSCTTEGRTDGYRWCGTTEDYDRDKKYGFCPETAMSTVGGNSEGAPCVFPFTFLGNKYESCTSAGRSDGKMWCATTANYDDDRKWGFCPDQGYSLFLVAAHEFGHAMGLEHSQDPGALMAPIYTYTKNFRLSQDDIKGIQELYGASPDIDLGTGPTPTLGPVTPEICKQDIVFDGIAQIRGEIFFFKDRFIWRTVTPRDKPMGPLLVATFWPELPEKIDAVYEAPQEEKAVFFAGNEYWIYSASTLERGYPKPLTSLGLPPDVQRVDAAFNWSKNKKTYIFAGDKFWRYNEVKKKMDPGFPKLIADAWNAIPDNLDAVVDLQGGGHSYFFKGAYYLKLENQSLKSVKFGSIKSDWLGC
Experimental: Gelatinase inhibition assay. Inhibition of aminophenylmercuric acetate (APMA)-activated MMP-2 and trypsin-activated MMP-9 was performed using biotinylated gelatin as a substrate (15).

pro-MMP-9 [5] = molecular target: T1, pro-MMP-9; test: Pro-MMP-9 activation in THP-1 cells, zymography; format: cell-based; details: THP-1, pro-MMP-3 and plasminogen, peptides 200 μM
Experimental: as §1

MMP-9 C domain [6] = molecular target: T2, MMP-9 C domain; test: Dimerization of the MMP-9 C domain; format: binding; details: 125I-labelled C domain on unlabelled C domain
Experimental: Dimerization of the MMP-9 C domain. Recombinant C domain or CBD at a 5 μg/ml concentration in PBS were coated on microtiter wells followed by blocking with 1% BSA-PBST. ^125I-labelled C domain was preincubated with the peptides for 30 minutes in 1% BSA-PBST and then added to the wells. After a 2 hour incubation, the wells were washed. Bound radioactivity was eluted with 1% SDS and measured with a gamma-counter.

HT1080 fibrosarcoma = test: HT1080 invasion through matrigel; format: cell-based, human; details: 200 μM concentration
Experimental: (§2) Cell migration and invasion. The cell migration assay was conducted using transwell migration chambers (8 μm pore size, Costar) in 10% serum-containing medium (2,14). Briefly, the membranes were coated on both sides with 40 μg/ml GST or with the β2 integrin ligand peptide […]-GST fusion (GST-LLG-C4) and blocked with complete medium. THP-1 cells (50 000/100 μl) were preincubated with the peptides for 1 h in serum-containing medium. The cells were allowed to migrate for 16 h and were then stained with crystal violet and counted (14). The HT1080 (20 000 cells/I100 μl) invasion assay was performed as the THP-1 migration, except that matrigel coated transwells (BD Biosciences) were used.

THP-1 monocytic cells = test: THP-1 cell migration on GST-LLG-C4; format: cell-based, human; details: GST-LLG-C4 substratum, 16 h
Experimental: as §2

T1 sequence (P14780 20-707 limits assumed): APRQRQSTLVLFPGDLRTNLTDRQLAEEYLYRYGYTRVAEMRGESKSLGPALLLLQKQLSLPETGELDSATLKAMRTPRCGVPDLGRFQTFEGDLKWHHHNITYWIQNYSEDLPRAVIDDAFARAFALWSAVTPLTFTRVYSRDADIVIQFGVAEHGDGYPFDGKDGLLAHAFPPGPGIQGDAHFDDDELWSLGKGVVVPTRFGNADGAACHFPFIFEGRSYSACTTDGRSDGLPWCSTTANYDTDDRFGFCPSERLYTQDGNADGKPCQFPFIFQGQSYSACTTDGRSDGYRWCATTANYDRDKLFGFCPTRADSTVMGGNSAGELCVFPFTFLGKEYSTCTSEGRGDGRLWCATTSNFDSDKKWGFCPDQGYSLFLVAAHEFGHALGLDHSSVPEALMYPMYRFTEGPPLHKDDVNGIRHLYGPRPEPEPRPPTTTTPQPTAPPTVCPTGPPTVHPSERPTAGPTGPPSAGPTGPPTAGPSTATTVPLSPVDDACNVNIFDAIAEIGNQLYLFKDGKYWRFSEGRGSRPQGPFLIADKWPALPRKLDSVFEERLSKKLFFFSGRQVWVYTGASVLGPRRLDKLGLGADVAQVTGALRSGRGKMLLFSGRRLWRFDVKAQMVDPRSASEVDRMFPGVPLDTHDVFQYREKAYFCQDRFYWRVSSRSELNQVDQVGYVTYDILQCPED

Sequence: CRVYGPYLLC
- Binding of PPC peptide-bearing phage to pro-MMP-9, competition (pro-MMP-9 [1]): not
- Binding of the CRV-phage to pro-MMP-9, competition (pro-MMP-9 [1]; TIMP-1 2.5 μg/ml): inhibited
- Inhibition of pro-MMP-9 activation (pro-MMP-9 [2]): inhibited pro-MMP-9 activation strongly
- Inhibition of activation of pro-MMP-2 (pro-MMP-2): partially
- Competition of biotinylated β5 I-EGF2+3 binding to the MMP-9 C domain (MMP-9 C domain [3]): inhibitable
- Inhibition of MMP-2 activity in gelatin degradation assay [4]: did not inhibit
- Effect on pro-MMP-9 activation (pro-MMP-9 [5]): blocked
- Inhibition of dimerization of the C domain (MMP-9 C domain [6]): inhibited
- Inhibition of HT1080 invasion into matrigel (HT1080 fibrosarcoma): 50%
- Inhibition of THP-1 migration (THP-1 monocytic cells): inhibitory effect
